Results on 7 substances are retold here after patent publication US20260078171A1.

In assay [1] the target is SARS-CoV-2 Beta RBD (SARS-CoV-2). Put plainly: bio-layer interferometry (BLI, Octet), monovalent Fab affinity. (In BLI a coated tip is dipped into the sample, and binding shifts an interference pattern.)
The target in assay [2] is SARS-CoV-2 Omicron BA.1 spike protein (authentic virus / MLV pseudovirus) (SARS-CoV-2). Put plainly: cell-based or functional assay.
The target in assay [3] is SARS-CoV-2 Omicron BA.4.1 spike protein (authentic virus) (SARS-CoV-2). Put plainly: cell-based or functional assay.
Assay [4] deals with SARS-CoV-2 Omicron BA.2 spike protein (authentic virus / MLV pseudovirus) (SARS-CoV-2). Put plainly: cell-based or functional assay.
In assay [5] the target is SARS-CoV-2 Delta spike protein (authentic virus / MLV pseudovirus) (SARS-CoV-2). Nature of the assay: cell-based or functional assay.
Assay [6] addresses SARS-CoV-2 Omicron BA.5 spike glycoprotein (lentivirus-based pseudovirus) (SARS-CoV-2). Nature of the assay: cell-based or functional assay.
The target of assay [7] is SARS-CoV-2 Omicron BA.2.75 spike glycoprotein (lentivirus-based pseudovirus) (SARS-CoV-2). Put plainly: cell-based or functional assay.
In assay [8] the target is SARS-CoV-2 Omicron XBB.1 spike protein, Monogram pseudovirus (SARS-CoV-2) (UniProt P0DTC2). Put plainly: cell-based or functional assay.
Assay [9] has as its target SARS-CoV-2 Omicron XBB spike protein, Monogram pseudovirus (SARS-CoV-2) (UniProt P0DTC2). Nature of the assay: cell-based or functional assay.
Assay [10] deals with SARS-CoV-2 B.1.617.2 (Delta) spike protein, Monogram pseudovirus (SARS-CoV-2) (UniProt P0DTC2). Nature of the assay: cell-based or functional assay.
The target in assay [11] is SARS-CoV-2 Omicron XBB.1.5 spike protein, Monogram pseudovirus (SARS-CoV-2) (UniProt P0DTC2). Nature of the assay: cell-based or functional assay.
For assay [12], the target named is SARS-CoV-2 Omicron BA.2.75 spike protein, Monogram pseudovirus (SARS-CoV-2) (UniProt P0DTC2). Nature of the assay: cell-based or functional assay.
The target of assay [13] is SARS-CoV-2 Beta spike protein (MLV pseudovirus) (SARS-CoV-2). Nature of the assay: cell-based or functional assay.
For assay [14], the target named is SARS-CoV-2 Omicron BN.1 spike protein, Monogram pseudovirus (SARS-CoV-2) (UniProt P0DTC2). Nature of the assay: cell-based or functional assay.

Sequence of VYD223 (antibody) (VH): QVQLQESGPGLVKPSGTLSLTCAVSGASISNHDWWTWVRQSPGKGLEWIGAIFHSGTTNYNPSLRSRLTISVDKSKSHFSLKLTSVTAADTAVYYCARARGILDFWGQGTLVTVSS
Sequence of VYD223 (antibody) (VL): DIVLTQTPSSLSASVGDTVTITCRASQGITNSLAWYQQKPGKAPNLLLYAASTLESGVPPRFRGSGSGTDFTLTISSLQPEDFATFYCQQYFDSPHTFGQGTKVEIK
Sequence of ADI-58125 (antibody) (VH): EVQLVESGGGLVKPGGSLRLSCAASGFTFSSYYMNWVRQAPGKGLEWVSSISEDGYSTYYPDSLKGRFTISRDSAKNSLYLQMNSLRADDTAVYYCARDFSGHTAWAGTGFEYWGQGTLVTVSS
Sequence of ADI-58125 (antibody) (VL): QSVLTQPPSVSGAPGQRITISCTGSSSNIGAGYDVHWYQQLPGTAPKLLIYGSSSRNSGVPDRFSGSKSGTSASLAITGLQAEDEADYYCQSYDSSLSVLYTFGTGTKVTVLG
Sequence of VYD224 (antibody) (VH): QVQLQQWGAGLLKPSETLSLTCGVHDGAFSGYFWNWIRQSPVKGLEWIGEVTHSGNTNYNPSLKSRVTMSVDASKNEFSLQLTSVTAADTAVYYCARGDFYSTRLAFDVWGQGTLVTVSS
Sequence of VYD224 (antibody) (VL): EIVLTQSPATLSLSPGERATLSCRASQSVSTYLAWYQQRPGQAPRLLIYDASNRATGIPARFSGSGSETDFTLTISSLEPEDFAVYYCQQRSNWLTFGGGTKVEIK
Sequence of VYD222 (antibody) (VH): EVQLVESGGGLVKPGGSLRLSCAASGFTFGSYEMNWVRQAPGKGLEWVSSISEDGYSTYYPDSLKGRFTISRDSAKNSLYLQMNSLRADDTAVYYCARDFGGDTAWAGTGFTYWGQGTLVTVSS
Sequence of VYD222 (antibody) (VL): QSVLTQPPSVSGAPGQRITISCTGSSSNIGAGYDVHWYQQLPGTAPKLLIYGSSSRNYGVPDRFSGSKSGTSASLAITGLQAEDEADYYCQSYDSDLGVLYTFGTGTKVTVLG

As to ADI-58125 (Fab), in assay [1], the Kd was 6.4 nM.
In the case of ADI-58125 (antibody), the IC50, authentic virus neutralization in assay [2] was over 5000 ng/mL; in assay [3] it was over 5000 ng/mL; in [4], over 5000 ng/mL; in [5], 49 ng/mL. The IC90, authentic virus neutralization in assay [2] is over 5000 ng/mL; in [3], over 5000 ng/mL; in assay [4], over 5000 ng/mL; in assay [5] it was 156 ng/mL.
For CoV2-2130 (antibody), the IC50, authentic virus neutralization is over 5000 ng/mL in [2], 88 ng/mL in [3], 11 ng/mL in assay [4] and 61 ng/mL in assay [5]. The IC90, authentic virus neutralization in assay [2] was over 5000 ng/mL; in assay [3] it was 587 ng/mL; in assay [4], 37 ng/mL; in assay [5] it was 136 ng/mL.
For the substance LY-CoV1404 (antibody), the IC50, authentic virus neutralization came out at 4 ng/mL in assay [2], 26 ng/mL in [3], 10 ng/mL in [4] and 27 ng/mL in assay [5]. Further, the IC90, authentic virus neutralization in assay [2] was 152 ng/mL; in assay [3], 100 ng/mL; in assay [4] it was 69 ng/mL; in assay [5], 96 ng/mL.
For the substance VYD222 (antibody), the IC50, lentivirus-based pseudovirus neutralization was 30 ng/mL in assay [6] and 100 ng/mL in assay [7]. The IC50, MLV-based pseudovirus neutralization in assay [2], in [4], in assay [5] and in [13] was under 0.0001 ng/mL in each case. The IC50, authentic virus neutralization was determined as 26 ng/mL in assay [2], 41 ng/mL in assay [3], 8 ng/mL in assay [4] and 16 ng/mL in assay [5]. Moreover, the IC90, authentic virus neutralization in assay [2] is 143 ng/mL; in [3], 524 ng/mL; in assay [4], 231 ng/mL; in assay [5] it was 103 ng/mL. The IC50, PhenoSense pseudovirus neutralization in [8] was determined as 121 ng/mL; in assay [9], 152 ng/mL; in [10] it was 4.2 ng/mL; in assay [11], 81 ng/mL; in [12], 1360 ng/mL; in assay [14] it was 2110 ng/mL.
In the case of VYD223 (antibody), the IC50, authentic virus neutralization in assay [2] was found to be 15 ng/mL; in [3], 63 ng/mL; in [4] it was 16 ng/mL; in [5] it was 13 ng/mL. Besides, the IC90, authentic virus neutralization was found to be 68 ng/mL in assay [2], 437 ng/mL in [3], 84 ng/mL in assay [4] and 60 ng/mL in [5].
For the substance VYD224 (antibody), the IC50, lentivirus-based pseudovirus neutralization in assay [6] is 80 ng/mL; in assay [7], 10 ng/mL. Moreover, the IC50, authentic virus neutralization in assay [2] worked out at 10 ng/mL; in [3], 126 ng/mL; in assay [4], 16 ng/mL; in [5], 6 ng/mL. Besides, the IC90, authentic virus neutralization came to 23 ng/mL in assay [2], 359 ng/mL in assay [3], 54 ng/mL in assay [4] and 14 ng/mL in assay [5]. In addition, the IC50, PhenoSense pseudovirus neutralization in assay [8] was over 5000 ng/mL; in [9], over 5000 ng/mL; in [10], 1 ng/mL; in [11], over 5000 ng/mL; in assay [12], 4 ng/mL; in [14], 1.5 ng/mL.

A word on the Kd: it is the constant that tells how readily two partners part at equilibrium.
